{"source": "patent US5504197", "biological_target": "PDGF-A (PDGF dimer composed of two A chains)", "data": [{"substance": "Platelet Derived Growth Factor-Associated Protein (PAP), rat, recombinant, expressed in bacteria", "values": [{"measurement": "3T3 cell mitogenicity assay (tritiated thymidine incorporation) in the presence and absence of PDGF", "result": "> 2", "unit": "fold"}]}]}
